How the values were obtained:
SMAD4 = SMAD4 (UniProt Q13485 1-552); experiment: EMSA
IRF1 = target: T1, IRF1 (UniProt P10914 1-325); experiment: EMSA
T1 sequence: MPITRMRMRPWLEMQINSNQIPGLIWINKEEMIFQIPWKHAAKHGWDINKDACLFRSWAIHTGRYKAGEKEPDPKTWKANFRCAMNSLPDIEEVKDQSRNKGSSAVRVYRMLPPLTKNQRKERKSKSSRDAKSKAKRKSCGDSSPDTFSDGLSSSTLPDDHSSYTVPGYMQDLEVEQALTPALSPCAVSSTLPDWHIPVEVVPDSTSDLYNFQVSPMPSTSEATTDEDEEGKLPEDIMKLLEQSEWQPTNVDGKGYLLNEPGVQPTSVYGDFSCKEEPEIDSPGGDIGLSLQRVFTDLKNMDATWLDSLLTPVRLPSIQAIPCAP

SMAD4, sequence (Q13485 whole entry): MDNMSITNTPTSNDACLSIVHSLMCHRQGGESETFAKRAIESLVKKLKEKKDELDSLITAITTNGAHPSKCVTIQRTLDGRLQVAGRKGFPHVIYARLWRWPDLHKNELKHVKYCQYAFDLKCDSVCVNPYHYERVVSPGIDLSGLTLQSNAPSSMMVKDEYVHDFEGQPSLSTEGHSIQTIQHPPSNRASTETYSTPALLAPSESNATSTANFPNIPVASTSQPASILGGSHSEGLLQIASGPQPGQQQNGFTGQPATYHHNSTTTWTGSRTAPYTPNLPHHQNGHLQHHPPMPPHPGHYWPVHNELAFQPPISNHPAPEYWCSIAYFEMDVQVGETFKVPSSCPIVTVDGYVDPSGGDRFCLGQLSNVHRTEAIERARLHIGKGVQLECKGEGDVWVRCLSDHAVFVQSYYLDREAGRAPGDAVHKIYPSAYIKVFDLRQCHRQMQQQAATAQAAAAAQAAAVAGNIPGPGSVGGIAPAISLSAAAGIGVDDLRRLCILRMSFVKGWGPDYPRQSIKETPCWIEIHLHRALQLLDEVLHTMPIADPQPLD

B1: HAMP-BRE-25 (dsDNA)
DNA 1: TCTCCCGCCTTTTCGGCGCCACCAC
DNA 2: GTGGTGGCGCCGAAAAGGCGGGAGA
- binding result (SMAD4): binds
- binding result (IRF1): no binding

B2: IFI6-ISRE-25 (dsDNA)
DNA 1: GAGAGGGGAAAATGAAACTGCAGAG
DNA 2: CTCTGCAGTTTCATTTTCCCCTCTC
- binding result (SMAD4): no binding
- binding result (IRF1): binds
